Source: the RNAGym collection of RNA variant scans (doi:10.7554/elife.90254)

B1: OR4K15 (parent)
chain: GUUAACGGUCAUAGGCCAUGGAAACUAGGAGCACCAUUUCGCUGCCAGUGAAGAAAUGAACAAAGAAAAUCUGGGCCAGGCAGGCAUCAAAAGAAAUAGUCUUGCGCUCAACCAGAAAGUCUGUAAUCAUUUUAAGGGUA

Variants of: B1
Assay: self-cleavage, relative activity (ratio to wild type); higher = more cleavage; in vitro, sequencing; the parent is a self-cleaving ribozyme

Variant	self-cleavage
GUUAACGGUCAUAGGCCAUGGGAACUAGGAGCACCAUUUCGCUGCCAGUGAAGAAAUGAACAAAGAAAAUCUGGGCCAGGCAGGCAUCAAAAGAAAUAGUCUUGCGCUCAACCAGAAAGUCUGUAAUCAUUUUAAGGGUG	1.85
GUUAACGGUCAUAGGCCAUGGGAACUAGGAGCACCAUUUCGCUGCCAGUGAAGAAAUGAACAAAGAAAAUCUGGGCCAGGCAGGCAUCAAAAGAAAUAGUCUUGCGCUCAACCAGAAAGUCUGUAAUCAUUUUAAGGGUU	0.8
GUUAACGGUCAUAGGCCAUGGGAACUAGGAGCACCAUUUCGCUGCCAAUGAAGAAAUGAACAAAGAAAAUCUGGGCCAGGCAGGCAUCAAAAGAAAUAGUCUUGCGCUCAACCAGAAAGUCUGUAAUCAUUUUAAGGGUA	1.56
GUUAACGGUCAUAGGCCAUGGGAACUAGGAGCACCAUUUCGCUGCCAGUGAAGAAAUGAACAAAGAAAAUCUGGGCCAGGCAGGCAUCAAAAGAAAUAGUCUUGCGCUCAACCAGAAAGACUGUAAUCAUUUUAAGGGUA	1.22
GUUAACGGUCAUAGGCCAUGGGAACUAGGAGCACCAUUUCGCUGCUAGUGAAGAAAUGAACAAAGAAAAUCUGGGCCAGGCAGGCAUCAAAAGAAAUAGUCUUGCGCUCAACCAGAAAGUCUGUAAUCAUUUUAAGGGUA	1.36
GUUAACGGUCAUAGGCCAUGGGAACUAGGAGCACCAUUUCGCUGCCAGUGAAGAAAUGAACAAAGAAAAUCUGGGCCAGGCAGGCAUCAAAAGAAAUAGACUUGCGCUCAACCAGAAAGUCUGUAAUCAUUUUAAGGGUA	0.54
GUUAACGGUCAUAGGCCAUGGGAACUAGGAGCACCAUUUCGCUGCCAGUGAAGAAAUGAACAAAGAAAAUCUGGGCCAGGCAGGCAUCAAAAGAAAUAGCCUUGCGCUCAACCAGAAAGUCUGUAAUCAUUUUAAGGGUA	1.69
GUUAACGGUCAUAGGCCAUGGGAACUAGGAGCACCAUUUCGCUGCCAGUGAAGAAAUGAACAAAGAAAAUCUGGGCCAGGCAGGCAUCAAAAGAAAGAGUCUUGCGCUCAACCAGAAAGUCUGUAAUCAUUUUAAGGGUA	1.42
GUUAACGGUCAUAGGCCAUGGGAACUAGGAGCACCAUUUCGCUGCCAGUGAAGAAAUGAACAAAGAAAAUCUGGGCCAGGUAGGCAUCAAAAGAAAUAGUCUUGCGCUCAACCAGAAAGUCUGUAAUCAUUUUAAGGGUA	0.53
GUUAACGGUCAUAGGCCAUGGGAACUAGGAGCACCAUUUCGCUGCCAGUGAAGAAACGAACAAAGAAAAUCUGGGCCAGGCAGGCAUCAAAAGAAAUAGUCUUGCGCUCAACCAGAAAGUCUGUAAUCAUUUUAAGGGUA	0.91
GUUAACGGUCAUAGGCCAUGGGAACUAGGAGCACCAUUUCGCUACCAGUGAAGAAAUGAACAAAGAAAAUCUGGGCCAGGCAGGCAUCAAAAGAAAUAGUCUUGCGCUCAACCAGAAAGUCUGUAAUCAUUUUAAGGGUA	1.2
GUUAACGGUCAUAGGCCAUGGGAACUAGGAGCAUCAUUUCGCUGCCAGUGAAGAAAUGAACAAAGAAAAUCUGGGCCAGGCAGGCAUCAAAAGAAAUAGUCUUGCGCUCAACCAGAAAGUCUGUAAUCAUUUUAAGGGUA	1.33
GUUAACGGUCAUAGGCCAUGGGAACUAGGAGCACCAUUUCGCUGCCAGUGAAGAAAUGAACAAAGAAAACCUGGGCCAGGCAGGCAUCAAAAGAAAUAGUCUUGCGCUCAACCAGAAAGUCUGUAAUCAUUUUAAGGGUA	0.91
GUUAACGGUCAUAGGCCAUGGGAACUAGGAGCACCAUUUCGCUGCCAGUGAACAAAUGAACAAAGAAAAUCUGGGCCAGGCAGGCAUCAAAAGAAAUAGUCUUGCGCUCAACCAGAAAGUCUGUAAUCAUUUUAAGGGUA	1.81
GUUAACGGUCAUAGGCCAUGGGAACUAGGAGUACCAUUUCGCUGCCAGUGAAGAAAUGAACAAAGAAAAUCUGGGCCAGGCAGGCAUCAAAAGAAAUAGUCUUGCGCUCAACCAGAAAGUCUGUAAUCAUUUUAAGGGUA	0.91
GUUAACGGUCAUAGGCCAUGGGAACUAGGAGCACCAUUUCGCUGCCAGUGAAGAAAUGAACAAAGAAAAUCUGGGCCAGGCAGGCAUCAAAAGAAAUAGUCUUGCGCUCAACCAGAAAGUCUGGAAUCAUUUUAAGGGUA	0.96
GUUAACGGUCAUAGGCCAUGGGAACUAGGAGCACCAUUUCGCUGCCAGUGAAGAAAUAAACAAAGAAAAUCUGGGCCAGGCAGGCAUCAAAAGAAAUAGUCUUGCGCUCAACCAGAAAGUCUGUAAUCAUUUUAAGGGUA	0.55
GUUAACGGUCAUAGGCCAUGGGAACUAGGAGCACCAUUUCGCUGCCAGUGAAGAAAUGAACAAAGAAAAUCUGGGUCAGGCAGGCAUCAAAAGAAAUAGUCUUGCGCUCAACCAGAAAGUCUGUAAUCAUUUUAAGGGUA	0.19
GUUAACGGUCAUAGGCCAUGGGAACUAGGAACACCAUUUCGCUGCCAGUGAAGAAAUGAACAAAGAAAAUCUGGGCCAGGCAGGCAUCAAAAGAAAUAGUCUUGCGCUCAACCAGAAAGUCUGUAAUCAUUUUAAGGGUA	1.19
GUUAACGGUCAUAGGCCAUGGGAACUAGGAUCACCAUUUCGCUGCCAGUGAAGAAAUGAACAAAGAAAAUCUGGGCCAGGCAGGCAUCAAAAGAAAUAGUCUUGCGCUCAACCAGAAAGUCUGUAAUCAUUUUAAGGGUA	0.75
GUUAACGGUCAUAGGCCAUGGGAACUAGGAGCACCAUUUCGCUGCCAGUGAAGAAAUGAACAAAGAAAAUCUGGGCCAGGCAGGCAUCAAAAGAAAUAGUCUUGCGCUCAACCAGAAAGUCUGUAAUCAUAUUAAGGGUA	1.53

Variant	self-cleavage
GUUAACGGUCAUAGGCCAUGGGAACUAGGAGCACCAAUUCGCUGCCAGUGAAGAAAUGAACAAAGAAAAUCUGGGCCAGGCAGGCAUCAAAAGAAAUAGUCUUGCGCUCAACCAGAAAGUCUGUAAUCAUUUUAAGGGUA	2.01
GUUAACGGUCAUAGGCCAUGGGAACUAGGAGCACCAGUUCGCUGCCAGUGAAGAAAUGAACAAAGAAAAUCUGGGCCAGGCAGGCAUCAAAAGAAAUAGUCUUGCGCUCAACCAGAAAGUCUGUAAUCAUUUUAAGGGUA	0.8
GUUAACGGUCAUAGGCCAUGGGAACUAGGAGCACCAUUUCGCUGCCAGUGAAGAAAUGAACAAAGAAAAUCUGGGCCAGGCAGGCAUCAAAAGAAAUAGUCUUGCGCUUAACCAGAAAGUCUGUAAUCAUUUUAAGGGUA	0
GUUAACGGUCAUAGGCCAUGGGAACUAGGAGCACCAUUUCGCUGCCAGCGAAGAAAUGAACAAAGAAAAUCUGGGCCAGGCAGGCAUCAAAAGAAAUAGUCUUGCGCUCAACCAGAAAGUCUGUAAUCAUUUUAAGGGUA	0.55
GUUAACGGUCAUAGGCCAUGGGAACUAGGAGCACCAUUUCGCUGCCAGGGAAGAAAUGAACAAAGAAAAUCUGGGCCAGGCAGGCAUCAAAAGAAAUAGUCUUGCGCUCAACCAGAAAGUCUGUAAUCAUUUUAAGGGUA	1.39
GUUAACGGUCAUAGGCCAUGGGAACUAGGAGCACCAUUUCGCUGCCAGUGAAGAAAUGAACAAAGAAAAUCUGGGCCAGGCAGGCAUCAAAAGAAAUAGUCUUGCGCUCAACCAGAAAGUCUGUAAUCAUUUUUAGGGUA	1.05
GUUAACGGUCAUAGGCCAUGGGAACUAGGAGCACCAUCUCGCUGCCAGUGAAGAAAUGAACAAAGAAAAUCUGGGCCAGGCAGGCAUCAAAAGAAAUAGUCUUGCGCUCAACCAGAAAGUCUGUAAUCAUUUUAAGGGUA	1.62
GUUAACGGUCAUAGGCCAUGGGAACUAGGAGCACCAUUCCGCUGCCAGUGAAGAAAUGAACAAAGAAAAUCUGGGCCAGGCAGGCAUCAAAAGAAAUAGUCUUGCGCUCAACCAGAAAGUCUGUAAUCAUUUUAAGGGUA	1.67
GUUAACGGUCAUAGGCCAUGGGAACUAGGAGCACCAUUACGCUGCCAGUGAAGAAAUGAACAAAGAAAAUCUGGGCCAGGCAGGCAUCAAAAGAAAUAGUCUUGCGCUCAACCAGAAAGUCUGUAAUCAUUUUAAGGGUA	1.39
GUUAACGGUCAUAGGCCAUGGGAACUAGGAGCACCAUUUCGCUGCCAGUGAAGAAAUGAACAAAGAAAAUCUGGGCCAGGCAGGCAUCAAAAGAAAUAGUCUUGCGCACAACCAGAAAGUCUGUAAUCAUUUUAAGGGUA	0.01
GUUAACGGUCAUAGGCCAUGGGAACUAGGAGCACCAUUUCGCUGCCAGUGAAGAAAUGAACAAAGAAAAUCUGGGCCAGGCAGGCAUCAAAAGAAAUAGUCUUGCGCUCAACCAGAAAGUCUGUAAUCAUUUUAAAGGUA	0.6
GUUAACGGUCAUAGGCCAUGGGAACUAGGAGCACCAUUUCGCUGCCAGUGAAGAAAUGAACAAAGAAAAUCUGGGCCAGGCAGGCAUCAAAAGAAAUAGUCUGGCGCUCAACCAGAAAGUCUGUAAUCAUUUUAAGGGUA	0.05
GUUAACGGUCAUAGGCCAUGGGAACUAGGAGCACCAUUUCGCUGCCAGUGAAGAAAUGAACAAAGAAAAUCUGGGCCAGGCAGGCAUCAAAAGAAAUAGUCUAGCGCUCAACCAGAAAGUCUGUAAUCAUUUUAAGGGUA	0.41
GUUAACGGUCAUAGGCCAUGGGAACUAGGAGCACCAUUUCGCUGCCAGUGAAGAAAUGAACAAAGAAAAUCUGGGCCAGGCAGGCAUCAAAAGAAAUAGUCAUGCGCUCAACCAGAAAGUCUGUAAUCAUUUUAAGGGUA	0.32
GUUAACGGUCAUAGGCCAUGGGAACUAGGAGCACCAUUUCGCUGCCAGUGAAGAAAUGAACAAAGAAAAUCUGGGCCAGGCAGGCAUCAAAAGAAAUAGUCCUGCGCUCAACCAGAAAGUCUGUAAUCAUUUUAAGGGUA	1.56
GUUAACGGUCAUAGGCCAUGGGAACUAGGAGCACCAUUUCGCUGCCAGUGAAGAAAUGAACAAAGAAAAUCUGGGCCAGGCAGGCAUCAAAAGAAAUAGUCGUGCGCUCAACCAGAAAGUCUGUAAUCAUUUUAAGGGUA	1.05
GUUAACGGUCAUAGGCCAUGGGAACUAGGAGCACCAUUUCGCUGCCAGUGAAGAAAUGAACAAAGAAAAUCUGGGCCAGGCAGGCAUCAAAAGAAAUAGUCUUGCGCUCAACCAGAAAGUCUGUAAACAUUUUAAGGGUA	2.2
GUUAACGGUCAUAGGCCAUGGGAACUAGGAGCACCAUUUCGCUGCCAGUGAAGAAAUGAACAAAGAAAAUCUGGGCCAGGCAGGCAUCAAAAGAAAUAGUCUUGCGCUCAACCAGAAAGUCUGUAAGCAUUUUAAGGGUA	1.34
GUUAACGGUCAUAGGCCAUGGGAACUAGGAGCACCAUUUCGCUGCCAGUGAAGAAAUGAACAAAGAAAAUCUGGGCCAGGCAGGCAUCAAAAGAAAUAGUCUUGCGCUCAACCAGAAAGUCUGUAACCAUUUUAAGGGUA	0.43
GUUAACGGUCAUAGGCCAUGGGAACUAGGAGCACCAUUUCGCUGCCAGUGAAGAAAUGAACAAAGAAAAUCUGGGCCAGGCAGGCAUCAAAAGAAAUAGUCUUGCGCUCAACCAGAAAGUCUGUAAUCAUUGUAAGGGUA	1.75
